The values that follow come from patent US20200199244A1 (published 2020).

The target in assay [1] is T1, cynomolgus monkey CD40 on CD20+ B cells in blood (Macaca fascicularis (cynomolgus monkey), UniProt P25942 21-277 (human entry)).
T1 construct: also called cynoCD40
T1 chain: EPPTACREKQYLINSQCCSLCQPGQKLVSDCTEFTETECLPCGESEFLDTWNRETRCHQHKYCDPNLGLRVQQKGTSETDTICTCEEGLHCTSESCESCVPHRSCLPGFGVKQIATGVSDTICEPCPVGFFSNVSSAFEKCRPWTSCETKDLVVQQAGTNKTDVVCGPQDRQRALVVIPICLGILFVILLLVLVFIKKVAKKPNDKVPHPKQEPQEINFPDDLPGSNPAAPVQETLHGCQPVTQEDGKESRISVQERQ
In words: flow cytometry on whole blood, PE-streptavidin detection, gate on CD20+ B cells. A general note: In flow cytometry, cells or beads pass a laser one at a time.
Description: (§1) 100 μl from each blood sample was aliquoted to 12×75 mm tubes and washed 3 times with FACS buffer (0.5% FBS/PBS/0.1% sodium azide). Tubes were centrifuged for 5 minutes at 1500 rpm, and supernatants were decanted between washes. Following the washes, tubes were placed on ice and incubated with human IgG for 5 minutes to block non-specific binding via Fc receptors.
(§2) For biotin-conjugated dAb detection, PE-labeled streptavidin (Invitrogen) and APC-labeled CD20 antibody (clone 2H7, BD Biosciences) were added to tubes and incubated 30 minutes at room temperature.
(§3) To lyse red blood cells and fix white blood cells following detection antibody incubation, FACS Lysing Solution (BD Biosciences) was added to all tubes, and samples were incubated for 15 minutes at room temperature. Samples were centrifuged and resuspended in FACS Lysing Solution, and analyzed by flow cytometry on a BD FACSCanto™, gating on CD20+ B cells for analysis. For marmoset samples, the CD20 antibody was not cross reactive; therefore analysis was performed on all lymphocytes as identified by forward and side scatter properties (size).

Assay [2] addresses T2, rhesus macaque CD40 on CD20+ B cells in blood (rhesus macaque, UniProt F6SNI1 21-278).
T2 construct: whole, on cells; also called rhesus CD40
The description is as above.
Description: as §1, §2, §3

Assay [3] addresses T3, marmoset CD40 on blood lymphocytes (marmoset, UniProt Q3LRP1 21-274).
T3 construct: whole, on cells
Description: flow cytometry on whole blood, PE-streptavidin detection, all lymphocytes by scatter.
Description: as §1, §2, §3

Assay [4] has as its target human CD40 on primary human cells (blood CD20+ B cells, tonsillar B cells, monocyte-derived dendritic cells) (human, UniProt P25942 21-277). Description: flow cytometry on human whole blood, PE-streptavidin detection, gate on CD20+ B cells.
Description: as §1, §2, §3
For assay [5], the target named is T4, human CD40 (W109L) Fc fusion (human, UniProt P25942 21-193).
T4 construct: Same construct as wt-hCD40 with W109L; also called hCD40-M2; hCD40 M2 (W109L); not shown: human IgG1 Fc
Description: SPR, ProteOn XPR36; CD40-Fc captured, dAb analyte. For orientation: SPR reads the build-up and loss of mass on a sensor chip optically.

The target in assay [6] is T5, human CD40 (W109R) Fc fusion (Chimpanzee CD40) (human, UniProt P25942 21-193).
T5 construct: Same construct as wt-hCD40 with W109R (the residue of chimpanzee CD40); also called hCD40-M3; hCD40 M3 (W109R); not shown: human IgG1 Fc
Description: SPR, ProteOn XPR36; CD40-Fc captured, dAb analyte.

The target in assay [7] is T6, human CD40 (W109L, L121P) Fc fusion (human, UniProt P25942 21-193).
T6 construct: Same construct as wt-hCD40 with W109L and L121P; also called hCD40-M4; hCD40 M4 (W109L, L121P); not shown: human IgG1 Fc
In words: SPR, ProteOn XPR36; CD40-Fc captured, dAb analyte.

For assay [8], the target named is T7, human CD40 (H76R, W109L, L121P) Fc fusion (human).
T7 construct: Same construct as wt-hCD40 with H76R, W109L and L121P; also called hCD40-M5; hCD40-M5 (H76R, W109L, L121P); not shown: human IgG1 Fc
T7 chain: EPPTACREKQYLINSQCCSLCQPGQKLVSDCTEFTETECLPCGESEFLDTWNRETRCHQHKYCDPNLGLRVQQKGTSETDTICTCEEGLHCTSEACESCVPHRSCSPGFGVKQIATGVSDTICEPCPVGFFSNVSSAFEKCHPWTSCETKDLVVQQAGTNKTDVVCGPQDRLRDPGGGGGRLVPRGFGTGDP
In words: SPR, ProteOn XPR36; CD40-Fc captured, dAb analyte.

Assay [9] addresses T8, wild type cynomolgus monkey CD40 Fc fusion (cynomolgus monkey (Macaca …)).
T8 construct: also called wt-cCD40; wt-cyno-CD40; not shown: human IgG1 Fc
T8 chain: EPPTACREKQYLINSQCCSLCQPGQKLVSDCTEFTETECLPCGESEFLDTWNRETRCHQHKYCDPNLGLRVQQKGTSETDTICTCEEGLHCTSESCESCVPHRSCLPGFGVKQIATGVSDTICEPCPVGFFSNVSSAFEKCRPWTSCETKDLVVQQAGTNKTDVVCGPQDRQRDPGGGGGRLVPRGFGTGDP
Description: SPR, ProteOn XPR36; CD40-Fc captured, dAb analyte.

The target of assay [10] is T9, wild type human CD40 Fc fusion (human, UniProt P25942 21-193).
T9 construct: also called wt-hCD40; not shown: human IgG1 Fc
Description: SPR, ProteOn XPR36; CD40-Fc captured, dAb analyte; 1:1 fit.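 Also: CD40-Fc captured on anti-human IgG(Fc) surface of a GLC chip, buffer pH 7.1, sensorgrams double-referenced against surfaces without CD40-Fc.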

The target in assay [11] is T10, human CD40 (H76R) Fc fusion (human, UniProt P25942 21-193).
T10 construct: also called hCD40-M1; hCD40 M1 (H76R); not shown: human IgG1 Fc
Described as above.

In assay [12] the target is T9, wild type human CD40 Fc fusion. In words: SPR, ProteOn XPR36; CD40-Fc captured, dAb analyte; 1:1 fit; repeat.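 Also: CD40-Fc captured on anti-human IgG(Fc) surface of a GLC chip, buffer pH 7.1, sensorgrams double-referenced against surfaces without CD40-Fc.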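 Also: CD40-Fc held on a GLC chip by an immobilized anti-human IgG(Fc) antibody, sensorgrams double-referenced against CD40-free surfaces, running buffer sodium phosphate with NaCl and Tween 20 at pH 7.1.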
Description: Assays were performed on a BioRad ProteOn XPR36 SPR instrument. The SPR surfaces were prepared by immobilizing 8 μg/ml anti-human IgG(Fc) antibody (Biacore/GE Healthcare) in 10 mM sodium acetate pH 4.5 on a BioRad GLC sensor chip using standard ethyl(dimethylaminopropyl) carbodiimide (EDC)/N-hydroxysuccinimide (NHS) chemistry, with ethanolamine blocking. The running buffer for immobilization and kinetic binding analysis was 10 mM sodium phosphate, 130 mM sodium chloride, 0.05% tween 20, pH 7.1. CD40-Fc fusion proteins at concentrations of 20 μg/ml were captured in the vertical orientation on these surfaces via the Fc tail, and reference surfaces lacking CD40-Fc proteins were used for reference subtraction. […] The surfaces were regenerated in both horizontal and vertical orientations with 30 s pulses of 3 M MgCl₂ followed by running buffer at 60 μl/min. Sensogram data was double-referenced and then fitted to a 1:1 Langmuir model using BioRad ProteOn Manager V.2.1.0.38 software, to determine the association rate constant (ka), the dissociation rate constant (kd), and the equilibrium dissociation constant (KD).

B1: BMS3h38-2-biotin (other)
VH: EVQLLASGGGLVQPGGSLRLSCAASGFTFEEEEMIWVRQAPGKGLEWVSAISGSGGSTYYADSVKGRFTISRDNSKNTLYLQMNSLRAEDTAVYYCGKEPFRYDYWGQGTLVTVSS
modifications: biotin-conjugated; site not stated
notes: Biotin conjugate of dAb BMS3h-38-2; also called biotin-conjugated dAb
For B1, the binding result in assay [1] was “no binding”; in [2], “no binding”; in assay [3], “no binding”; in assay [4], “binds”.

B2: BMS3h-38-2 (other)
VH: EVQLLASGGGLVQPGGSLRLSCAASGFTFEEEEMIWVRQAPGKGLEWVSAISGSGGSTYYADSVKGRFTISRDNSKNTLYLQMNSLRAEDTAVYYCGKEPFRYDYWGQGTLVTVSS
notes: Anti-human CD40 domain antibody (dAb), single VH domain
A word on the Kd: it is the concentration at which binding is half-saturated. What is called koff is the rate constant with which the complex falls apart. As usually defined, the kon is a measure of how fast the partners come together. For the molecule B2, the binding result in assay [5], in [6], in assay [7], in assay [8] and in assay [9] was “no binding (tested: dAb tested up to 405 nM)” each time. In addition, the Kd in [10] was determined as 5.07 nM; in [11], 7.15 nM; in assay [12], 8.04 nM. Moreover, the koff is 0.000608 s⁻¹ in assay [10], 0.001 s⁻¹ in [11] and 0.00114 s⁻¹ in [12]. For the same molecule, the kon in assay [10] is 120000 M⁻¹ s⁻¹; in [11] it was 140000 M⁻¹ s⁻¹; in assay [12], 142000 M⁻¹ s⁻¹.
